# Measurements from patent US20180155434A1 (UNIVERSITY OF TOYAMA, published 2018).
# Molecular target: T1, mouse IL-5Rα on Y16 cells (mouse, UniProt P21183 18-415)
# T1 construct: whole, on cells; also called IL-5Rα chain; mouse IL-5Rα-expressing cell Y16
# T1 sequence (looked up): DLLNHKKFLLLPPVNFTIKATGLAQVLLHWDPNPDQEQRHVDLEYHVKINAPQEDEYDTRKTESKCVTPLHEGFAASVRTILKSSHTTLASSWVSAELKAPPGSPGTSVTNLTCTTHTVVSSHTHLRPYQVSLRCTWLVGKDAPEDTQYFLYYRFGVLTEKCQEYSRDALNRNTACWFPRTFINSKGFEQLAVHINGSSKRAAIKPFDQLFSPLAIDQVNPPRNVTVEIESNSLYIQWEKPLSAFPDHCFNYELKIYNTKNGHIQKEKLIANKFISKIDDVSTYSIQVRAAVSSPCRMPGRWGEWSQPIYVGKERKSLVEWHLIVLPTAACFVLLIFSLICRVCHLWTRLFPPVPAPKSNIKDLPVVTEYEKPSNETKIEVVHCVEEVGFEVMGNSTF
# Test: flow cytometry on Y16 cells expressing mouse IL-5R, detection with goat F(ab')2 anti-human IgG PE, Geomean
# Experimental: The chimeric antibodies prepared in Example 8 were evaluated for their antigen binding activity using a mouse-derived cell line Y16 expressing IL-5R. The Y16 cells were washed with SM (staining medium containing 2% FCS, 0.05% NaN₃, and 1 mM EDTA in PBS). Then, Mouse BD Fc Block (manufactured by Becton, Dickinson and Company) was added thereto at a concentration of 5 μg/mL, and the mixture was left standing at 4° C. for 30 min. The cells were inoculated at a cell number of 1×10⁵ cells/well to a 96-well U-bottom plate, and each chimeric antibody adjusted to a final concentration of 10000, 2500, 625, 156, 39, 10, 2.4, or 0.6 ng/mL was added thereto, followed by reaction at 4° C. for 60 min. The rat/human chimeric control antibodies used were rtDNP-1 hIgG1 (DF) antibody (KM8808) and rtDNP-1 hIgG1 (N297A) antibody (KM6161). The nucleotide sequences and amino acid sequences of the variable regions of each isotype control antibody are shown in SEQ ID NOs: 29 to 34. After washing of the cells with SM, Goat F(ab′)₂ Anti-Human IgG PE (γ chain specific) (manufactured by Southern Biotech) diluted 500-fold with SM was added thereto, followed by reaction at 4° C. for 60 min. After washing of the cells with SM, the cells were resuspended in 50 μL of SM. Fluorescence intensity was measured by FCM (flow cytometer FACS Canto II (manufactured by Becton, Dickinson and Company)). The data was analyzed using FlowJo 7.65 (manufactured by Tomy Digital Biology Co., Ltd.) to calculate a Geomean value at each concentration.
Binder,EC50 (read off the curve),binding result
"H7 hIgG1 (DF) (H7-1) (antibody, V domains shown, also called core fucose-deficient H7 chimeric antibody; Potelligent-type H7 chimeric antibody) VH: EVQLQQSGAELGKPGTSVKLSCKVSGYNIKNTYIHWVNQRPGKGLEWIGRIDPANGNPIYAEKFKNKATLTADTSSNTAYMQLSQLKSDDTAIYFCAMHRGHSMGPGPYVMDAWGQGASVTVSS VL: DIQMTQSPASLSASLGETVTIECRTSEDIYNGLAWYQQKPGKSPQLLIYNANSLHTGVPSRFSGSGSGTQYSLKINSLQSEDVASYCCQQYSNYPFTFGSGTKLEIK",~0.06 µg/mL,
"H7 hIgG1 (N297A) (H7-3) (antibody, V domains shown, Rat H7 variable regions on a human IgG1 constant region with N297A (EU index), so it lacks the N-linked sugar chain; Human kappa light chain constant region; also called N-linked sugar chain-deficient H7 chimeric antibody) VH: EVQLQQSGAELGKPGTSVKLSCKVSGYNIKNTYIHWVNQRPGKGLEWIGRIDPANGNPIYAEKFKNKATLTADTSSNTAYMQLSQLKSDDTAIYFCAMHRGHSMGPGPYVMDAWGQGASVTVSS VL: DIQMTQSPASLSASLGETVTIECRTSEDIYNGLAWYQQKPGKSPQLLIYNANSLHTGVPSRFSGSGSGTQYSLKINSLQSEDVASYCCQQYSNYPFTFGSGTKLEIK",~0.06 µg/mL,
"H7 (CS) hIgG1 (N297A) (H7-4) (antibody, V domains shown, H7 VL with Cys 87 replaced by Ser. Human IgG1 constant region with N297A (EU index) and human kappa constant region; also called H7 (CS) altered form) VH: EVQLQQSGAELGKPGTSVKLSCKVSGYNIKNTYIHWVNQRPGKGLEWIGRIDPANGNPIYAEKFKNKATLTADTSSNTAYMQLSQLKSDDTAIYFCAMHRGHSMGPGPYVMDAWGQGASVTVSS VL: DIQMTQSPASLSASLGETVTIECRTSEDIYNGLAWYQQKPGKSPQLLIYNANSLHTGVPSRFSGSGSGTQYSLKINSLQSEDVASYSCQQYSNYPFTFGSGTKLEIK",~0.04 µg/mL,
"H7 (CS) hIgG1 (DF) (H7-2) (antibody, V domains shown, Human IgG1 and human kappa constant regions, no core fucose (FUT8-/- CHO); also called Cys substitution variant H7-2; H7 (CS) altered form) VH: EVQLQQSGAELGKPGTSVKLSCKVSGYNIKNTYIHWVNQRPGKGLEWIGRIDPANGNPIYAEKFKNKATLTADTSSNTAYMQLSQLKSDDTAIYFCAMHRGHSMGPGPYVMDAWGQGASVTVSS VL: DIQMTQSPASLSASLGETVTIECRTSEDIYNGLAWYQQKPGKSPQLLIYNANSLHTGVPSRFSGSGSGTQYSLKINSLQSEDVASYSCQQYSNYPFTFGSGTKLEIK",~0.04 µg/mL,
"rtDNP-1 hIgG1 (DF) antibody (KM8808) (antibody, V domains shown, Isotype control; Rat anti-DNP variable regions on a human IgG1 constant region, no core fucose; also called core fucose-deficient anti-dinitrophenol (DNP) rat/human chimeric antibody) VH: EVQLQESGPGLVKPSQSLSLTCSVTGYSITSGYWNWIRKFPGNKMEWIGYISYSGSTYYNPSLKSRISITRDTSKNQFFLQLNSVTTEDTATYYCARWGVRHYFDYWGQGVMATVSS VL: DVVMTQTPVSLPVSLGGQASISCRSSQSLANSYGNTYLSWYLQKPGQSPQLLIYRVSNTFSGVPDRFSGSGSGTDFTLKISRVEPEDLGDYYCLQGTHQPYTFGAGTKLELK",,no binding (tested: 10 µg/mL)
"rtDNP-1 hIgG1 (N297A) antibody (KM6161) (antibody, V domains shown, Isotype control; Rat anti-DNP variable regions on a human IgG1 constant region with N297A; also called N-linked sugar chain-deficient anti-DNP rat/human chimeric antibody) VH: EVQLQESGPGLVKPSQSLSLTCSVTGYSITSGYWNWIRKFPGNKMEWIGYISYSGSTYYNPSLKSRISITRDTSKNQFFLQLNSVTTEDTATYYCARWGVRHYFDYWGQGVMATVSS VL: DVVMTQTPVSLPVSLGGQASISCRSSQSLANSYGNTYLSWYLQKPGQSPQLLIYRVSNTFSGVPDRFSGSGSGTDFTLKISRVEPEDLGDYYCLQGTHQPYTFGAGTKLELK",,no binding (tested: 10 µg/mL)
